Reference: patent US20030091568A1, “Inhibitors for the formation of soluble human CD23” (priority 2000, published 2003)
Where two headings read alike, the source gives them in different places.

Tests used:
[1] = target: T1, human CD23b (full length cDNA, expressed on transfected COS or CHO cells) (human) (UniProt P06734); experiment: cell-based or functional assay
T1 sequence (looked up): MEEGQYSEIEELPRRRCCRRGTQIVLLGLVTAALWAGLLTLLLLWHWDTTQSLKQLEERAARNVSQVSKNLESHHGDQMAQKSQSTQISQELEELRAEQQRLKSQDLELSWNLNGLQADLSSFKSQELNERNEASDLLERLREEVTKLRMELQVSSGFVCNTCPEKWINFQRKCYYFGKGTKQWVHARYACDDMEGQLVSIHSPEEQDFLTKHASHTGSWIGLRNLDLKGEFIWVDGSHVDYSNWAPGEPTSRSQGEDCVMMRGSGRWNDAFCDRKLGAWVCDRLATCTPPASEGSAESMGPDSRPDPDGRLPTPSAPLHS

[2] = target: oxidized human insulin B chain (human); experiment: cell-based or functional assay
ADAM9-Fc fusion protein = target: T2, ADAM9-Fc fusion protein (Mus musculus, UniProt Q61072); experiment: Cleavage of oxidized insulin B chain by soluble ADAM9-Fc (MALDI-TOF); assay type: biochemical; settings: 2 mM inhibitor
T2 construct: the complete extracellular domain of ADAM9 (aa 1-698); made in house; host or cells: HEK293-EBNA1 cells (pCEP4), purified on Protein A Sepharose
T2 sequence (Q61072 206-698 limits assumed): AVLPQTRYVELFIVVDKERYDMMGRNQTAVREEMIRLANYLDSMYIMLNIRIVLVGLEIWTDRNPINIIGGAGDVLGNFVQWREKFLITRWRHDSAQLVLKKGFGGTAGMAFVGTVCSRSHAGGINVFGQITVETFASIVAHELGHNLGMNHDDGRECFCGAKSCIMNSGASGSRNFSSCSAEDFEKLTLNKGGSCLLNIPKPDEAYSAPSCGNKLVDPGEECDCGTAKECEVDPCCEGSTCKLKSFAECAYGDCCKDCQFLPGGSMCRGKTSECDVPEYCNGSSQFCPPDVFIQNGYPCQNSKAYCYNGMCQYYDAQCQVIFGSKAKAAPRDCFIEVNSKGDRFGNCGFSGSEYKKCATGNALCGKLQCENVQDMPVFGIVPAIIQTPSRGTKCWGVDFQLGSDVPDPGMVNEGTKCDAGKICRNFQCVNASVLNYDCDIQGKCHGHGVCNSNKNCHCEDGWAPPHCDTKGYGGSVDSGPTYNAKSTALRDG
From the text: The estimated cleavage sites (marked by an ↓), determined by mass spectrometry (MALDI-TOF), are indicated.

[3] = target: T1, human CD23b (full length cDNA, expressed on transfected COS or CHO cells) (human); experiment: cell-based or functional assay; remark: listed apart in the source

Sequence of oxidized human insulin B chain (human) (peptide, as listed by the source): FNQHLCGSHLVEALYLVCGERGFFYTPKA

A decrease in surface fluorescence intensity of CD23 (FACS, cotransfected COS cells, 48 h) [1] of 35 to 40% was found for “ADAM9ACT (truncated cytoplasmic domain), transfected into COS cells (from UniProt Q61072 30-845) (enzyme)” in this work.

A peptide cleavage (MALDI-TOF) (cleavage sites) [2] of 2 was found for “soluble ADAM9-Fc fusion protein (ADAM9 aa 1-698 fused to human IgG1 Fc)” in this work.

c1cnc2c(c1)ccc1cccnc12 [o-phenanthroline] was tested, and the “inhibition of cleavage of the insulin B chain” value (ADAM9-Fc fusion protein) was “completely inhibited”.

B1: ADAM9 (full length cDNA, transfected into COS-7 or CHO AA8 cells) (enzyme, murine, UniProt Q61072 30-845, looked up)
chain: GRPDLEQTVHLSSYEIITPWRLTRERREALGPSSQQISYVIQAQGKQHIIHLERNTDLLPNDFVVYTYDKEGSLLSDHPNVQSHCHYRGYVEGVQNSAVAVSACFGLRGLLHLENASFGIEPLHNSSHFEHIFYPMDGIHQEPLRCGVSNRDTEKEGTQGDEEEHPSVTQLLRRRRAVLPQTRYVELFIVVDKERYDMMGRNQTAVREEMIRLANYLDSMYIMLNIRIVLVGLEIWTDRNPINIIGGAGDVLGNFVQWREKFLITRWRHDSAQLVLKKGFGGTAGMAFVGTVCSRSHAGGINVFGQITVETFASIVAHELGHNLGMNHDDGRECFCGAKSCIMNSGASGSRNFSSCSAEDFEKLTLNKGGSCLLNIPKPDEAYSAPSCGNKLVDPGEECDCGTAKECEVDPCCEGSTCKLKSFAECAYGDCCKDCQFLPGGSMCRGKTSECDVPEYCNGSSQFCPPDVFIQNGYPCQNSKAYCYNGMCQYYDAQCQVIFGSKAKAAPRDCFIEVNSKGDRFGNCGFSGSEYKKCATGNALCGKLQCENVQDMPVFGIVPAIIQTPSRGTKCWGVDFQLGSDVPDPGMVNEGTKCDAGKICRNFQCVNASVLNYDCDIQGKCHGHGVCNSNKNCHCEDGWAPPHCDTKGYGGSVDSGPTYNAKSTALRDGLLVFFFLIVPLVAAAIFLFIKRDELRKTFRKKRSQMSDGRNQANVSRQPGDPSISRPPGGPNVSRPPGGPGVSRPPGGPGVSRPPGGPGVSRPPPGHGNRFPVPTYAAKQPAQFPSRPPPPQPKISSQGNLIPARPAPAPPLYSSLT
An amount of s-CD23 in culture supernatant (ELISA), ADAM9 expression On against Off [3] of 2 to 3 times, a decrease in surface bound CD23 (flow cytometry MFI, CHO clone 3, tetracycline removed) [3] of 40 to 50% and a decrease in surface fluorescence intensity of CD23 (FACS, cotransfected COS cells, 48 h) [3] of 35 to 40% were found for B1 in this work.
